Measurements published in paper PMC2732903.

Legend:
[1] = test system: Wt26 (DNA, G4) TTAGGGTTAGGGTTAGGGTTAGGGTT; assay: EMSA, inhibition of hPOT1 binding; details: 100 mM NaCl; 50 mM HEPES pH 7.9, room temperature; 30 nM hPOT1 displaced; 20 nM DNA; indirect
[2] = test system: Wt26 (DNA, G4) TTAGGGTTAGGGTTAGGGTTAGGGTT; assay: EMSA, inhibition of Topo IIIα binding; details: 100 mM NaCl; 50 mM HEPES pH 7.9, room temperature; 50 nM Topo IIIα displaced; 20 nM DNA; indirect
[3] = test system: 21G (DNA, G4) GGGTTAGGGTTAGGGTTAGGG; assay: EMSA, inhibition of Topo IIIα binding; details: 100 mM NaCl; 50 mM HEPES pH 7.9, room temperature; 50 nM Topo IIIα displaced; 20 nM DNA; indirect
[4] = test system: 21Gmu (21G mu3) (DNA, single strand) GGCTTACGGTTAGCGTTAGGG; assay: EMSA, inhibition of Topo IIIα binding; details: 100 mM NaCl; 50 mM HEPES pH 7.9, room temperature; 50 nM Topo IIIα displaced; 20 nM DNA; indirect
[5] = test system: S310 (DNA, single strand) CCAGCTCTGCTTTGCATCTTT; assay: EMSA, inhibition of Topo IIIα binding; details: 100 mM NaCl; 50 mM HEPES pH 7.9, room temperature; 50 nM Topo IIIα; 20 nM DNA; up to 10 µM telomestatin; indirect
[6] = biological target: T1, Topoisomerase IIIα (Topo III) (human, UniProt Q13472 1-1001); assay: EMSA; no ligand; probe 20 nM, Topo III 50 nM; 50 mM HEPES pH 7.9, 100 mM NaCl, 0.1 mM EDTA, 4% sucrose, 2% glycerol, 0.1 mg/mL BSA, 0.02% bromophenol blue, 20 nM probe, room temperature 30 min; 1% agarose; details: protein: recombinant; label: 32P; single strand
T1 sequence: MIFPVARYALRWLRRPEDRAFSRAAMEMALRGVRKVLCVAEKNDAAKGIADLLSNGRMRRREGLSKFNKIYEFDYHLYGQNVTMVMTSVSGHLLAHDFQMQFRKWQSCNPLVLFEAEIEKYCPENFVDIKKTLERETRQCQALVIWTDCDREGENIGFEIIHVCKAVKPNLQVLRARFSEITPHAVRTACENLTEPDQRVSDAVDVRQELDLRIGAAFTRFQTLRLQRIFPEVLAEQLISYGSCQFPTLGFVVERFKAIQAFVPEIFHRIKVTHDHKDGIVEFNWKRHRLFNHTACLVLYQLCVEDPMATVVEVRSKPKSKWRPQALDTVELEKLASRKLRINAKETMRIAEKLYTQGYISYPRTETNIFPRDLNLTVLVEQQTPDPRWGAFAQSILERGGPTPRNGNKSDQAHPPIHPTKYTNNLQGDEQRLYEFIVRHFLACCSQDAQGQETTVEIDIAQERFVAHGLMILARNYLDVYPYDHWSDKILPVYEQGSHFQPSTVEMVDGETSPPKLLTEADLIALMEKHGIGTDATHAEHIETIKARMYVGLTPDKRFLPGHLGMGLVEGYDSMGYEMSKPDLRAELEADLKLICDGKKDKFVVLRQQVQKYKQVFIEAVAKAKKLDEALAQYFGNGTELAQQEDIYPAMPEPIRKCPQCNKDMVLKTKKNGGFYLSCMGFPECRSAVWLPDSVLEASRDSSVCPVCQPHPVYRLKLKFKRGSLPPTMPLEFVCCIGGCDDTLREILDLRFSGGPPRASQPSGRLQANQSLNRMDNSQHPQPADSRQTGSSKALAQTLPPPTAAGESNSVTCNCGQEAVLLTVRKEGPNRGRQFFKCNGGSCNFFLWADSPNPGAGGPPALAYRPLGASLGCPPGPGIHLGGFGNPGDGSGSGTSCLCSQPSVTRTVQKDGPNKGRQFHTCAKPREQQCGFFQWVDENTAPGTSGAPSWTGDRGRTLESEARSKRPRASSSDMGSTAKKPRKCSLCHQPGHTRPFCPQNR

[7] = biological target: T1, Topoisomerase IIIα (Topo III); assay: competition; unlabelled competitor vs 32P-24C; more potent than Pu22myc; non-G4 IC50s 4.3-10.1-fold lower than G4 oligos overall; 50 mM HEPES pH 7.9, 100 mM NaCl, 0.1 mM EDTA, 4% sucrose, 2% glycerol, 0.1 mg/mL BSA, 0.02% bromophenol blue, 20 nM probe, room temperature 30 min; 1% agarose; details: protein: recombinant; single strand, cannot form G4
[8] = biological target: T1, Topoisomerase IIIα (Topo III); assay: EMSA; no telomestatin; 50 mM HEPES pH 7.9, 100 mM NaCl, 0.1 mM EDTA, 4% sucrose, 2% glycerol, 0.1 mg/mL BSA, 0.02% bromophenol blue, 20 nM probe, room temperature 30 min; 1% agarose; details: protein: recombinant
[9] = biological target: T1, Topoisomerase IIIα (Topo III); assay: competition; unlabelled competitor vs 32P-24C (20 nM), Topo III 50 nM; 50 mM HEPES pH 7.9, 100 mM NaCl, 0.1 mM EDTA, 4% sucrose, 2% glycerol, 0.1 mg/mL BSA, 0.02% bromophenol blue, 20 nM probe, room temperature 30 min; 1% agarose; details: protein: recombinant; G4-forming
hPOT1 = biological target: T2, hPOT1 (human, UniProt Q9NUX5 1-634); assay: EMSA; no telomestatin; POT1 30 nM, probe 20 nM; 50 mM HEPES pH 7.9, 100 mM NaCl, 0.1 mM EDTA, 4% sucrose, 2% glycerol, 0.1 mg/mL BSA, 0.02% bromophenol blue, 20 nM probe, room temperature 30 min; 1% agarose; details: protein: recombinant; label: 32P; G4-forming
T2 sequence: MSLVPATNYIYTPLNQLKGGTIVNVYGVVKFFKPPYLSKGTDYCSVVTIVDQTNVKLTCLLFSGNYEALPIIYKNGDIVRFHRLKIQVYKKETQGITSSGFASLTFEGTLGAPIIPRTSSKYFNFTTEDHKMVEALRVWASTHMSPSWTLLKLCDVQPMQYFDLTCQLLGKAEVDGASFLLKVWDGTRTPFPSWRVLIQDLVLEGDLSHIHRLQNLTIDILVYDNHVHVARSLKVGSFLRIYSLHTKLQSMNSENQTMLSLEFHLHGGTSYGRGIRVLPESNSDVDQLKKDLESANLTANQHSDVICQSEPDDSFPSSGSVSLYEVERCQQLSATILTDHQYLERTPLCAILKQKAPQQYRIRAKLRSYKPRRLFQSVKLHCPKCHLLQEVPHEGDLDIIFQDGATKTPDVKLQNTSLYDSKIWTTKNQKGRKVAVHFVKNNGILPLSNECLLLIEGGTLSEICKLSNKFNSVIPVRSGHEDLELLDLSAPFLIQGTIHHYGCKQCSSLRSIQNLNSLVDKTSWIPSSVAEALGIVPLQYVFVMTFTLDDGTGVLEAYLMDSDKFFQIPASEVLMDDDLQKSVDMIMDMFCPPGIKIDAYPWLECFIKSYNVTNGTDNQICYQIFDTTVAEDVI

Molecule: Cc1oc2nc1-c1nc(co1)-c1nc(co1)-c1nc(co1)-c1nc(co1)-c1nc(co1)C1=NC(CS1)c1nc-2c(C)o1 (stereo not shown)
- IC50 [1]: 100 nM
- IC50 [2]: 60 nM
- IC50 [3]: 300 nM
- IC50 [4]: > 10000 nM
- binding [5]: no

Molecule: CCCTAACCCTAACCCTAACCCTAA (ssDNA) [24C]
- binding result [6]: binds

Molecule: GAGGGTGAAGAGGGTGGGGAAG (ssDNA) [Pu22mu]
- binding result [7]: binds

Molecule: CCAGCTCTGCTTTGCATCTTT (ssDNA) [S310]
- binding result ([8]; label: 32P): binds

Molecule: GAGGGTGGGGAGGGTGGGGAAG (structured_DNA) [Pu22myc]
- binding signal [9]: ~3 fold higher concentration than Pu22mu needed to inhibit binding

Molecule: GGCTTACGGTTAGCGTTAGGG (ssDNA) [21G mu3 (21Gmu)]
- binding result ([8]; label: 32P when used as probe, single strand, cannot form G4): binds

Molecule: TTAGGGTTAGGGTTAGGGTTAGGGTT (structured_DNA) [Wt26]
- binding result ([8]; label: 32P, G4-forming): binds
- binding result (hPOT1): binds

Molecule: GGGTTAGGGTTAGGGTTAGGG (structured_DNA) [21G]
- binding result ([8]; label: 32P when used as probe, G4-forming): binds
